Where a chain is given by its changes, count along the chain named. Like-named read-outs stand apart in the source and are kept apart here.
Tests used:
[1] = target: T1, S. cerevisiae Rpn14 (recombinant) (S. cerevisiae, UniProt P53196 1-417); assay: NMR titration
[2] = target: T1, S. cerevisiae Rpn14 (recombinant); assay: AUC
[3] = target: T1, S. cerevisiae Rpn14 (recombinant); assay: AUC; remark: listed apart in the source

T1 sequence (P53196 whole entry): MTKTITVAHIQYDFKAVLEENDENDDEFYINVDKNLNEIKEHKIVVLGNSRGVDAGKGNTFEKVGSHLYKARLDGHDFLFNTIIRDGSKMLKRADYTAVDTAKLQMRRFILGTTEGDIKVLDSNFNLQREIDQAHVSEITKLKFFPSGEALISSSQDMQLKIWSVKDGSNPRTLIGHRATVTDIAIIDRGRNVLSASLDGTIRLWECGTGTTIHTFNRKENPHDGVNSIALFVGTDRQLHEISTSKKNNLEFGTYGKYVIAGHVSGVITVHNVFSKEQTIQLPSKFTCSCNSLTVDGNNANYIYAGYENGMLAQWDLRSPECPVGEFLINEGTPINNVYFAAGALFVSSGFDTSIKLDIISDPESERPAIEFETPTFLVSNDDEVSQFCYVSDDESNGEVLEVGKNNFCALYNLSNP

B1: Rpt6-C (P318-N393) (domain or fragment, S. cerevisiae, UniProt Q01939 318-393, looked up)
chain: PPSVAARAEILRIHSRKMNLTRGINLRKVAEKMNGCSGADVKGVCTEAGMYALRERRIHVTQEDFELAVGKVMNKN
binding result [1]: binds

B2: S. cerevisiae Rpt6 C-terminal domain (Rpt6-C), P318-K405 (domain or fragment, UniProt Q01939 318-405, looked up)
chain: PPSVAARAEILRIHSRKMNLTRGINLRKVAEKMNGCSGADVKGVCTEAGMYALRERRIHVTQEDFELAVGKVMNKNQETAISVAKLFK
Kd [2]: 0.25 nM | stoichiometry N [2]: 1

B3: Rpt6-C G^360,387A (domain or fragment, S. cerevisiae, UniProt Q01939 318-405, looked up)
chain: B2 chain with G43A, G70A
Kd [3]: 0.01 nM
